Consider 14 molecules from publication PMC11252000, “MFSD1 with its accessory subunit GLMP functions as a general dipeptide uniporter in lysosomes” (Nature Cell Biology, 2024).

One assay addresses Ala–Ala dipeptide. The assay can be described thus: nanoDSF thermal stability assay. To be noted: 5 mM peptide, n = 3, apo Tm of WT est. 40 °C, parent: est. 41, read off a plot. For orientation: In DSF a fluorescence change marks the thermal transition of the protein.
The next assay addresses Arg–Pro dipeptide. In words: nanoDSF thermal stability assay. To be noted: 5 mM peptide, n = 3, apo Tm of WT est. 40 °C, parent: est. 42, read off a plot.
The next assay has as its target Leu–Ala dipeptide. The assay can be described thus: nanoDSF thermal stability assay. To be noted: 5 mM peptide, n = 3, apo Tm of WT est. 40 °C, parent: est. 47, read off a plot.
The target of a further assay is Pro–Arg dipeptide. In words: nanoDSF thermal stability assay. To be noted: 5 mM peptide, n = 3, apo Tm of WT est. 40 °C, parent: est. 49, read off a plot.
The next assay concerns the target Lys–Val dipeptide. The assay can be described thus: nanoDSF thermal stability assay. To be noted: 5 mM peptide, n = 3, apo Tm of WT est. 40 °C, parent: est. 46, read off a plot.
The target of the next assay is Anserine. The assay can be described thus: nanoDSF thermal stability assay. To be noted: 5 mM peptide, n = 3, apo Tm of WT est. 40 °C, parent: est. 40, read off a plot.
For the next assay, the target named is Ala-His. The assay can be described thus: nanoDSF thermal stability assay. To be noted: 5 mM peptide, n = 3, apo Tm of WT est. 40 °C, parent: est. 40, read off a plot.
In the next assay the target is His-Ser dipeptide. In words: nanoDSF thermal stability assay. To be noted: 5 mM peptide, n = 3, apo Tm of WT est. 40 °C, parent: est. 40, read off a plot.
In another assay the target is His–Ala dipeptide. In words: nanoDSF thermal stability assay. To be noted: 5 mM peptide, n = 3, apo Tm of WT est. 40 °C, parent: est. 41, read off a plot.
In assay [1] the target is MFSD1-strep (mouse major facilitator superfamily domain containing 1 protein with N-terminal Twin-Strep-tag) (mouse) (UniProt Q9DC37). The assay can be described thus: nanoDSF thermal shift; protein 0.2 mg/ml in 100 mM HEPES pH 7.5, 150 mM NaCl, 0.03% DDM, 0.003% CHS; 5 mM ligand, 30 min at room temperature; 20 to 95 °C at 1 °C/min (Prometheus NT.48).
Assay [2] concerns the target T1, MFSD1 (MFSD1WT, mmMFSD1, MFSD1-strep) (Mus musculus, UniProt Q9DC37).
T1 construct: full length; N-terminal Twin-Strep-tag + HRV 3C site; Expi293F; purified in DDM/CHS; liposomes POPE:POPG:CHS for transport
T1 sequence (Q9DC37 1-464): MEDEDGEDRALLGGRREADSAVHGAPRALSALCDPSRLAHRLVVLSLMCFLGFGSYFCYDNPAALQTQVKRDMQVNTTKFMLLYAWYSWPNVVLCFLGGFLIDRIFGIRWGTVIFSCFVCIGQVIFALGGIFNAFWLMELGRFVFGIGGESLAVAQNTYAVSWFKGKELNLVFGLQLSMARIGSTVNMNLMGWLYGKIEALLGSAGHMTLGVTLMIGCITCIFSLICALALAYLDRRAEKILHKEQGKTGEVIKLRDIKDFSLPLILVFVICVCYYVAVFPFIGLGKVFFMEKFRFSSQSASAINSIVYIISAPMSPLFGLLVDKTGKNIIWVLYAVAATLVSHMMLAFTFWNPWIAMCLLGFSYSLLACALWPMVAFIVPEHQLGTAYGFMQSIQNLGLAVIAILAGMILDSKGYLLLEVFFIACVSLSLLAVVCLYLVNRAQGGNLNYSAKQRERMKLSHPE
The assay can be described thus: nanoDSF thermal shift titration. In kind it is binding.

The target in assay [3] is GLMP + MFSD1 co-complex (co-expressed MFSD1-strep and GLMP-Ct-His-GFP, purified) (mouse) (UniProt Q9DC37).
The mark [4] stands for this setting: apo Tm of this mutant est. 47 °C.
The mark [5] stands for this setting: apo Tm of this mutant est. 36 °C.
[6] abbreviates: apo Tm of this mutant est. 37 °C.
The mark [7] stands for this setting: apo Tm of this mutant est. 42 °C.
Where [8] appears, read: apo Tm of this mutant est. 39 °C.

Where a SMILES comes first, the peptide text is derived from it.

Chain of MFSD1-strep (mouse major facilitator superfamily domain containing 1 protein with N-terminal Twin-Strep-tag) (from UniProt Q9DC37) W373A (Q9DC37 whole entry W373A, looked up, the tested form may be a part): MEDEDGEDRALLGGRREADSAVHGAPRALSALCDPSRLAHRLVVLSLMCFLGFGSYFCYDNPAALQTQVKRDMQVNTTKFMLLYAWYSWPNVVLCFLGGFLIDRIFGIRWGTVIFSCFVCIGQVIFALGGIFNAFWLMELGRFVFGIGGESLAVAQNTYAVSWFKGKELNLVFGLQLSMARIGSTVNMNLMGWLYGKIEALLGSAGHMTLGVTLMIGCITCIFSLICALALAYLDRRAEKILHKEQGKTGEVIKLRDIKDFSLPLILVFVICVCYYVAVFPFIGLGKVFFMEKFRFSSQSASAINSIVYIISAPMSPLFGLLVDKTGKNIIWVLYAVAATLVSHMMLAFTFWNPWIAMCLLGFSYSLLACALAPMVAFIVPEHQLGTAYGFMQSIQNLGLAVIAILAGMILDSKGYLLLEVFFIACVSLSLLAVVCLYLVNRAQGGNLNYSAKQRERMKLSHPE
Chain of MFSD1-strep (mouse major facilitator superfamily domain containing 1 protein with N-terminal Twin-Strep-tag) (from UniProt Q9DC37) Q176E (Q9DC37 whole entry Q176E, looked up, the tested form may be a part): as the sequence (Q9DC37 whole entry W373A, looked up, the tested form may be a part) above, with Q176E, A373W counted along it
Chain of MFSD1-strep (mouse major facilitator superfamily domain containing 1 protein with N-terminal Twin-Strep-tag) (from UniProt Q9DC37) Y56A (Q9DC37 whole entry Y56A, looked up, the tested form may be a part): as the sequence (Q9DC37 whole entry W373A, looked up, the tested form may be a part) above, with Y56A, A373W counted along it
Chain of MFSD1-strep (mouse major facilitator superfamily domain containing 1 protein with N-terminal Twin-Strep-tag) (from UniProt Q9DC37) Q176A (Q9DC37 whole entry Q176A, looked up, the tested form may be a part): as the sequence (Q9DC37 whole entry W373A, looked up, the tested form may be a part) above, with Q176A, A373W counted along it
Chain of MFSD1-strep (mouse major facilitator superfamily domain containing 1 protein with N-terminal Twin-Strep-tag) (from UniProt Q9DC37) Q176K (Q9DC37 whole entry Q176K, looked up, the tested form may be a part): as the sequence (Q9DC37 whole entry W373A, looked up, the tested form may be a part) above, with Q176K, A373W counted along it

Regarding “MFSD1-strep (mouse major facilitator superfamily domain containing 1 protein with N-terminal Twin-Strep-tag) (from UniProt Q9DC37) W373A”, the other: Tm in the assay with Ala–Ala dipeptide (setting [4]) is 47 °C; in the assay with Arg–Pro dipeptide (setting [4]) it was 46 °C; in the assay with Leu–Ala dipeptide (setting [4]) it was 47 °C; with Pro–Arg dipeptide (setting [4]) it was 47 °C; in the assay with Lys–Val dipeptide (setting [4]) it was 47 °C; in the assay with Anserine (setting [4]), 47 °C. Besides, the other: Tm in the assay with Ala-His (setting [4]), in the assay with His-Ser dipeptide (setting [4]) and with His–Ala dipeptide (setting [4]) was 47 °C in each case.

For “MFSD1-strep (mouse major facilitator superfamily domain containing 1 protein with N-terminal Twin-Strep-tag) (from UniProt Q9DC37) Q176A”, the other: Tm with Ala–Ala dipeptide (setting [5]) was determined as 40 °C; with Arg–Pro dipeptide (setting [5]), 48 °C; in the assay with Leu–Ala dipeptide (setting [5]) it was 48 °C; with Pro–Arg dipeptide (setting [5]), 59 °C; with Lys–Val dipeptide (setting [5]), 49 °C; with Anserine (setting [5]), 36 °C. In addition, the other: Tm came to 36 °C with Ala-His (setting [5]), 37 °C in the assay with His-Ser dipeptide (setting [5]) and 42 °C with His–Ala dipeptide (setting [5]).

What is called ΔTm is the change in melting temperature against a reference sample. On to Pro–Arg dipeptide, for which the ΔTm at 5 mM ligand in assay [1] stood at 12.1 °C.

On to His–Lys dipeptide, for which the ΔTm at 5 mM ligand in [1] was determined as 12 °C.

Broadly, the Kd is a measure of binding affinity in units of concentration. Consider `N=C(N)NCCC[C@H](NC(=O)[C@@H]1CCCN1)C(=O)O` [Pro–Arg] (H-Pro-Arg-OH), for which the dissociation constant (Kd) in assay [2] was found to be 318 ± 66.7 µM.

For Lys–Ala dipeptide, the KM of the Lys–Ala-evoked inward current in MFSD1–GLMP oocytes (TEVC, −40 mV, pH 5.0) in assay [3] was 2.6 mM.

For “MFSD1-strep (mouse major facilitator superfamily domain containing 1 protein with N-terminal Twin-Strep-tag) (from UniProt Q9DC37) Q176E”, the other: Tm with Ala–Ala dipeptide (setting [6]) amounted to 42 °C; with Arg–Pro dipeptide (setting [6]), 48 °C; with Leu–Ala dipeptide (setting [6]), 52 °C; with Pro–Arg dipeptide (setting [6]), 51 °C; with Lys–Val dipeptide (setting [6]) it was 49 °C; with Anserine (setting [6]), 40 °C. Besides, the other: Tm with Ala-His (setting [6]) is 40 °C; in the assay with His-Ser dipeptide (setting [6]), 40 °C; with His–Ala dipeptide (setting [6]), 44 °C.

For the molecule `CC(C)[C@H](NC(=O)[C@@H](N)CCCCN)C(=O)O` [Lys–Val] (H-Lys-Val-OH), the dissociation constant (Kd) in assay [2] was 4300 ± 600 µM.

As for `CC(C)C[C@H](N)C(=O)N[C@@H](C)C(=O)O` [Leu–Ala] (H-Leu-Ala-OH), the Kd in assay [2] amounted to 2200 ± 420 µM.

As for “MFSD1-strep (mouse major facilitator superfamily domain containing 1 protein with N-terminal Twin-Strep-tag) (from UniProt Q9DC37) Q176K”, the other: Tm in the assay with Ala–Ala dipeptide (setting [7]) amounted to 46 °C; in the assay with Arg–Pro dipeptide (setting [7]), 42 °C; in the assay with Leu–Ala dipeptide (setting [7]), 53 °C; in the assay with Pro–Arg dipeptide (setting [7]) it was 42 °C; with Lys–Val dipeptide (setting [7]), 43 °C; with Anserine (setting [7]), 43 °C. Also, the figures for the other: Tm with Ala-His (setting [7]), in the assay with His-Ser dipeptide (setting [7]) and with His–Ala dipeptide (setting [7]) were 43 °C, 45 °C and 49 °C, respectively.

As to Glu–Ser dipeptide, the inhibition of the current evoked by 3 mM Lys–Ala in MFSD1–GLMP oocytes (TEVC, pH 5.0) by 10 mM Glu–Ser applied simultaneously in [3] came out at 26%.

`NCCCC[C@H](NC(=O)[C@@H](N)Cc1c[nH]cn1)C(=O)O` [His–Lys] (H-His-Lys-OH): in assay [2], the Kd stood at 765 ± 136 µM.

Regarding “MFSD1-strep (mouse major facilitator superfamily domain containing 1 protein with N-terminal Twin-Strep-tag) (from UniProt Q9DC37) Y56A”, the other: Tm with Ala–Ala dipeptide (setting [8]) is 41 °C; with Arg–Pro dipeptide (setting [8]) it was 42 °C; with Leu–Ala dipeptide (setting [8]) it was 45 °C; in the assay with Pro–Arg dipeptide (setting [8]), 44 °C; with Lys–Val dipeptide (setting [8]), 45 °C; in the assay with Anserine (setting [8]) it was 42 °C. In addition, the other: Tm with Ala-His (setting [8]), in the assay with His-Ser dipeptide (setting [8]) and with His–Ala dipeptide (setting [8]) was 42 °C in each case.

Consider Leu–Leu dipeptide, for which, in assay [1], the shift in melting temperature (ΔTm) at 5 mM ligand amounted to 14 °C.
